The source of these data is PMC8752837, “Structural basis of BAK activation in mitochondrial apoptosis initiation” (Nature Communications, 2022).

Like-named read-outs stand apart in the source and are kept apart here.

The target in experiment [1] is T1, Human BAK-∆TM-His6 (human).
T1 sequence (Q16611 whole entry, looked up): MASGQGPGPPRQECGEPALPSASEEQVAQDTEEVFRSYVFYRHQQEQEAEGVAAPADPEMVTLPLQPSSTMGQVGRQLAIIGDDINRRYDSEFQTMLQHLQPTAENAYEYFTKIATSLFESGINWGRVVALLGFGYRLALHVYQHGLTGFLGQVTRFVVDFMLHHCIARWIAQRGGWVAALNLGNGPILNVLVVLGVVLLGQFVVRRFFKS
As to the kind of experiment: SPR; MEAS-BAK-His6 captured (~500 RU) on Ni2+-charged NTA HisCap chip, peptides injected; 20 °C; 20 mM HEPES pH 8.0, 200 mM NaCl, 1 mM TCEP, 0.01% Tween20; 1:1 interaction model. Background: SPR reads the build-up and loss of mass on a sensor chip optically.

Experiment [2] concerns the target tevBAK (residues 22–186) (human) (UniProt Q16611). Nature of the experiment: ITC; 250 or 500 µM BID BH3 peptide injected into 20 or 50 µM tevBAK; 25 °C; 20 mM HEPES, 100 mM NaCl, 1 mM TCEP; single site binding model. For orientation: Isothermal titration calorimetry measures the heat released or taken up as one component is titrated into another.
Experiment [3] concerns the target T2, MEAS-BAK-His6 (C-terminus truncated recombinant human BAK containing C-terminal 6x histidine tag) (human) (UniProt Q16611).
T2 sequence: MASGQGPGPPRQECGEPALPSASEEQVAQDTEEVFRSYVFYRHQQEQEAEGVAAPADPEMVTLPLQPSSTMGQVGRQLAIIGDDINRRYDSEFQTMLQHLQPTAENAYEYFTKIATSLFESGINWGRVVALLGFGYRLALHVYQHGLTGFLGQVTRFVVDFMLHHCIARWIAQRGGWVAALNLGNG
As to the kind of experiment: SPR; MEAS-BAK-His6 captured (~500 RU) on Ni-NTA HisCap chip, peptides injected; 20 °C; 20 mM HEPES pH 8.0, 200 mM NaCl, 1 mM TCEP, 0.01% Tween20; 1:1 interaction model.

For experiment [4], the target named is T2, MEAS-BAK-His6 (C-terminus truncated recombinant human BAK containing C-terminal 6x histidine tag) (human). The description is as above. The source holds these as a separate data set.
For experiment [5] the target is unchanged.
Experiment [6] deals with GST-BAK (human). As to the kind of experiment: fluorescence polarisation; competitive: displacement of 10 nM BID BH3 SAHB-F from 1 µM GST-BAK by peptides at 500-0.2 µM; 50 mM Tris-HCl pH 7.5, 50 mM KCl, 0.1 mg/mL BSA, 2 mM DTT, 0.005% Tween-20; 60 min at RT. (In general: Fluorescence polarisation rises when a labelled molecule tumbles more slowly, as on binding a larger partner.)

Consider M(3)W(5) BID-like BH3 peptide, for which the fold higher affinity than WT BID BH3 in experiment [1] and in experiment [2] was 30 fold throughout.

Broadly, the kon is a measure of how fast the partners come together. For orientation: Kd means a measure of binding affinity in units of concentration. Usually koff stands for the rate constant with which the complex falls apart. Take W(3)W(5) BID BH3 peptide: the on-rate constant (kon) in experiment [3] came out at 79100 M⁻¹ s⁻¹. For the same substance, in experiment [4], the Kd is 0.336 µM, the koff turned out to be 0.0241 s⁻¹ and the kon came to 71900 M⁻¹ s⁻¹.

Consider WT BID BH3 peptide, for which the Supplementary Table 1: liposome permeabilization EC50 (peptide dose against AUC, 50 nM BAK; data of Supplementary Figure 7c) in experiment [5] amounted to 0.059 µM. In experiment [4], the Kd came to 62.3 µM, the koff was 0.261 s⁻¹ and the kon came to 4190 M⁻¹ s⁻¹.

A word on the IC50: it is the point on the concentration scale where inhibition reaches its midpoint. High values mean weaker potency, low ones greater potency. In turn, Y(3) BID BH3 peptide registered an IC50 in experiment [6] of 6.2 µM.

In experiment [6], Y(4) BID BH3 peptide displayed a 50% inhibitory concentration (IC50) of 6.9 µM.
